Test results as given in paper PMC3577987 (Journal of molecular biology, 2012).

How the values were obtained:
pulsed dipolar ESR = biological target: the molecule itself; assay: pulsed dipolar ESR
SAXS = biological target: the molecule itself; assay: SAXS
crystal structure = biological target: the molecule itself; assay: crystal structure

B1: Aer2 1–402 S183C, MTSSL spin-labeled (domain or fragment)
chain: MGLFNAHAVAQQRADRIATLLQSFADGQLDTAVGEAPAPGYERLYDSLRALQRQLREQRAELQQVESLEAGLAEMSRQHEAGWIDQTIPAERLEGRAARIAKGVNELVAAHIAVKMKVVSVVTAYGQGNFEPLMDRLPGKKAQITEAIDGVRERLRGAAEATSAQLATAAYNARIKSALDNVCANVMIADNDLNIIYMNRTVSEMLGRAEADIRKQLPNFDAGRLMGANIDVFHKNPAHQRHLLANLTGVHKAELNLGGRRFSLDVVPVFNDANERLGSAVQWTDRTEEHRAEQEVSQLVQAAAAGDFSKRVEEAGKEGFFLRLAKDLNSLVDTADRGLRDVSRMLGALAQGDLTQRIEADYQGTFGQLKDFSNDTAQSLSRMLGQIREAADTINTAASEIA
modifications: MTSSL nitroxide spin label on C183
binding result (pulsed dipolar ESR): binds

B2: Aer2 1–402 (domain or fragment)
chain: MGLFNAHAVAQQRADRIATLLQSFADGQLDTAVGEAPAPGYERLYDSLRALQRQLREQRAELQQVESLEAGLAEMSRQHEAGWIDQTIPAERLEGRAARIAKGVNELVAAHIAVKMKVVSVVTAYGQGNFEPLMDRLPGKKAQITEAIDGVRERLRGAAEATSAQLATAAYNARIKSALDNVSANVMIADNDLNIIYMNRTVSEMLGRAEADIRKQLPNFDAGRLMGANIDVFHKNPAHQRHLLANLTGVHKAELNLGGRRFSLDVVPVFNDANERLGSAVQWTDRTEEHRAEQEVSQLVQAAAAGDFSKRVEEAGKEGFFLRLAKDLNSLVDTADRGLRDVSRMLGALAQGDLTQRIEADYQGTFGQLKDFSNDTAQSLSRMLGQIREAADTINTAASEIA
binding result (SAXS): binds

B3: Aer2 1–317 (domain or fragment)
chain: MGLFNAHAVAQQRADRIATLLQSFADGQLDTAVGEAPAPGYERLYDSLRALQRQLREQRAELQQVESLEAGLAEMSRQHEAGWIDQTIPAERLEGRAARIAKGVNELVAAHIAVKMKVVSVVTAYGQGNFEPLMDRLPGKKAQITEAIDGVRERLRGAAEATSAQLATAAYNARIKSALDNVSANVMIADNDLNIIYMNRTVSEMLGRAEADIRKQLPNFDAGRLMGANIDVFHKNPAHQRHLLANLTGVHKAELNLGGRRFSLDVVPVFNDANERLGSAVQWTDRTEEHRAEQEVSQLVQAAAAGDFSKRVEEAGK
binding result (SAXS): binds

B4: Aer2 173–289 K176A E275A (domain or fragment)
chain: ARIASALDNVSANVMIADNDLNIIYMNRTVSEMLGRAEADIRKQLPNFDAGRLMGANIDVFHKNPAHQRHLLANLTGVHKAELNLGGRRFSLDVVPVFNDANARLGSAVQWTDRTEE
binding result (crystal structure): binds
